From the supplement of paper PMC7877785
± gives the uncertainty stated by the source.

Test: self-splicing fitness, log relative to wild type (ln ratio); higher = more splicing; Tetrahymena group I intron in knt gene, E. coli kanamycin selection, DiMSum; sequences stand for … in CUCUCU…GGAGGGAAAAGUUAUCAGGCAUGCACCUGGUAGCUAGUCUUUAAACCAAUAGAUUGCAUCGGUUUAAAAGGCAAGACCGUCAAAUUGCGGGAAAGGGGUCAACAGCCGUUCAGUACCAAGUCUCAGGGGAAACUUUGAGAUGGCCUUGCAAAGGGUAUGGUAAUAAGCUGACGGACAUGGUCCUAACCACGCAGCCAAGUCCUAAGUCAACAGAUCUUCUGUUGAUAUGGAUGCAGUUCACAGACUAAAUGUCGGUCGGGGAAGAUGUAUUCUUCUCAUAAGAUAUAGUCGGACCUCUCCUUAAUGGGAGCUAGCGGAUGAAGUGAUGCAACACUGGAGCCGCUGGGAACUAAUUUGUAUGCGAAAGUAUAUUGAUUAGUUUUGGAGUACUCGUGGUCG
In short: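 A randomised library covering all eight P1ex-region intron nucleotides was built with the intron in the knt kanamycin-resistance gene on pET-22b(+) and held in E. coli BL21(DE3). Cells were grown overnight at 37°C or 30°C on LB agar, with or without 25 μg/mL kanamycin, plus 100 μg/mL carbenicillin, 50 μM IPTG and 0.2% rhamnose, and pooled colonies were amplicon-sequenced on an Illumina HiSeq 2500. DiMSum fitness is the error-weighted combination of wild-type-normalised replicate fold changes, kanamycin versus none.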

Sequence | self-splicing fitness (ln) (30 °C) | self-splicing fitness (ln) (37 °C)
UGUCAGCAAUAUUACGGCCC | -1.78 ± 0.41 | -0.199 ± 0.4
UGUCAGCAAUAUUACGGCGA | -0.34 ± 0.093 | -0.0234 ± 0.1
UGUCAGCAAUAUUACGGCGC | -2.76 ± 0.21 | -1.65 ± 0.19
UGUCAGCAAUAUUACGGUGA | -0.413 ± 0.094 | -0.355 ± 0.12
UGUCAGCAAUAUUACGUACA | -0.576 ± 0.11 | -0.0735 ± 0.13
UGUCAGCAAUAUUACGUAUA | -0.245 ± 0.067 | 0.374 ± 0.087
UGUCAGCAAUAUUACGUCAA | -0.787 ± 0.077 | -0.0175 ± 0.076
UGUCAGCAAUAUUACGUGAU | -2.85 ± 0.13 | -1.81 ± 0.14
UGUCAGCAAUAUUACGUGUU | -3.51 ± 0.15 | -1.23 ± 0.11
UGUGAGCAAUAUUACGACAG | -1.7 ± 0.1 | -1.59 ± 0.12
UGUGAGCAAUAUUACGACAU | -3.682 ± 0.033 | -2.45 ± 0.042
UGUGAGCAAUAUUACGACGA | -0.898 ± 0.14 | 0.278 ± 0.14
UGUGAGCAAUAUUACGAGAG | -3.57 ± 0.23 | -2.44 ± 0.22
UGUGAGCAAUAUUACGAUUG | -2.19 ± 0.26 | -0.226 ± 0.26
UGUGAGCAAUAUUACGCAAU | -4.42 ± 0.42 | -2.73 ± 0.31
UGUGAGCAAUAUUACGCGAA | -4.12 ± 0.29 | -2.54 ± 0.18
UGUGAGCAAUAUUACGCUAU | – | -1.9 ± 0.3
UGUGAGCAAUAUUACGCUGG | -2.49 ± 0.28 | -2.71 ± 0.37
UGUGAGCAAUAUUACGGAGA | -3.34 ± 0.28 | -2.29 ± 0.31
UGUGAGCAAUAUUACGGCUA | -0.645 ± 0.13 | -0.508 ± 0.15
UGUGAGCAAUAUUACGGGGC | -3.14 ± 0.39 | -2.25 ± 0.33
UGUGAGCAAUAUUACGGUCA | -0.959 ± 0.056 | -0.333 ± 0.069
UGUGAGCAAUAUUACGGUUA | -2.47 ± 0.2 | -0.332 ± 0.16
UGUGAGCAAUAUUACGUAGU | -2.87 ± 0.24 | -3.06 ± 0.35

Sequence | self-splicing fitness (ln) (30 °C) | self-splicing fitness (ln) (37 °C)
UGUGAGCAAUAUUACGUAUU | -3.12 ± 0.16 | -2.63 ± 0.26
UGUGAGCAAUAUUACGUUAC | -3.75 ± 0.37 | -2.6 ± 0.38
UGUGAGCAAUAUUACGUUCG | -3.41 ± 0.22 | -1.32 ± 0.15
UGUUAGCAAUAUUACGAAAG | -2.64 ± 0.14 | -2.73 ± 0.25
UGUUAGCAAUAUUACGACGC | -1.59 ± 0.2 | -1.47 ± 0.32
UGUUAGCAAUAUUACGAGAG | -3.33 ± 0.33 | -3.15 ± 0.27
UGUUAGCAAUAUUACGAGUG | -0.0674 ± 0.16 | -0.336 ± 0.18
UGUUAGCAAUAUUACGAUCC | -0.915 ± 0.34 | –
UGUUAGCAAUAUUACGAUUA | -0.127 ± 0.093 | 0.424 ± 0.11
UGUUAGCAAUAUUACGCACG | -0.922 ± 0.11 | -0.377 ± 0.12
UGUUAGCAAUAUUACGCAGG | -3.96 ± 0.35 | -2.96 ± 0.25
UGUUAGCAAUAUUACGCCGC | -3.34 ± 0.45 | –
UGUUAGCAAUAUUACGCGAC | -3.75 ± 0.4 | -1.59 ± 0.5
UGUUAGCAAUAUUACGCGUG | -0.492 ± 0.11 | -0.61 ± 0.099
UGUUAGCAAUAUUACGCUAU | -3.53 ± 0.49 | -1.29 ± 0.32
UGUUAGCAAUAUUACGCUUG | -2.03 ± 0.14 | -0.556 ± 0.12
UGUUAGCAAUAUUACGGCAA | -0.875 ± 0.15 | -0.17 ± 0.14
UGUUAGCAAUAUUACGGGCG | -0.142 ± 0.11 | 0.388 ± 0.12
UGUUAGCAAUAUUACGUCGG | -0.97 ± 0.1 | -0.8 ± 0.17
UGUUAGCAAUAUUACGUGCC | -2.05 ± 0.17 | -0.583 ± 0.21
UGUUAGCAAUAUUACGUGUC | -3.15 ± 0.33 | -1.48 ± 0.28
UGUUAGCAAUAUUACGUUGC | -2.88 ± 0.24 | -1.62 ± 0.26
UGUUAGCAAUAUUACGUUGG | -1.56 ± 0.11 | -1.26 ± 0.14
UUAAAGCAAUAUUACGAUAA | 0.359 ± 0.084 | 0.431 ± 0.1

Sequence | self-splicing fitness (ln) (30 °C) | self-splicing fitness (ln) (37 °C)
UUAAAGCAAUAUUACGAUCC | -1.64 ± 0.18 | -0.49 ± 0.24
UUAAAGCAAUAUUACGCAUU | -2.76 ± 0.15 | -2.86 ± 0.27
UUAAAGCAAUAUUACGCCAA | 0.638 ± 0.29 | -0.283 ± 0.39
UUAAAGCAAUAUUACGCCAG | 0.134 ± 0.17 | -1.25 ± 0.21
UUAAAGCAAUAUUACGGAAU | -3.11 ± 0.17 | -1.73 ± 0.17
UUAAAGCAAUAUUACGGAGC | -3.99 ± 0.28 | -0.662 ± 0.23
UUAAAGCAAUAUUACGGAUC | -1.78 ± 0.24 | -0.2 ± 0.21
UUAAAGCAAUAUUACGGGAA | -0.821 ± 0.088 | -0.351 ± 0.12
UUAAAGCAAUAUUACGGGAU | -2.8 ± 0.14 | -0.86 ± 0.12
UUAAAGCAAUAUUACGGUAA | -0.33 ± 0.076 | 0.503 ± 0.1
UUAAAGCAAUAUUACGGUUA | 0.31 ± 0.069 | -0.0607 ± 0.072
UUAAAGCAAUAUUACGUAAA | -1.16 ± 0.12 | -0.0909 ± 0.12
UUAAAGCAAUAUUACGUAGA | -1.55 ± 0.099 | -0.654 ± 0.12
UUAAAGCAAUAUUACGUAUG | -0.495 ± 0.068 | -0.0669 ± 0.097
UUAAAGCAAUAUUACGUAUU | -3.28 ± 0.15 | -2.75 ± 0.2
UUAAAGCAAUAUUACGUGAA | -1.8 ± 0.13 | -0.0245 ± 0.13
UUAAAGCAAUAUUACGUGCG | -0.23 ± 0.058 | -0.242 ± 0.085
UUAAAGCAAUAUUACGUGGC | -3.08 ± 0.15 | -2.98 ± 0.3
UUAAAGCAAUAUUACGUUUA | -0.747 ± 0.068 | -0.409 ± 0.09
UUACAGCAAUAUUACGAAAG | -2.87 ± 0.29 | -2.73 ± 0.33
UUACAGCAAUAUUACGACUC | -2.69 ± 0.24 | -1.28 ± 0.2
UUACAGCAAUAUUACGCAAG | -1.73 ± 0.1 | -0.345 ± 0.12
UUACAGCAAUAUUACGCGAG | -1.02 ± 0.085 | -0.72 ± 0.08
UUACAGCAAUAUUACGCGAU | -2.28 ± 0.18 | -1.75 ± 0.16

Sequence | self-splicing fitness (ln) (30 °C) | self-splicing fitness (ln) (37 °C)
UUACAGCAAUAUUACGCGGA | -1.6 ± 0.12 | -0.823 ± 0.095
UUACAGCAAUAUUACGCUUA | -1.38 ± 0.11 | -0.114 ± 0.1
UUACAGCAAUAUUACGCUUC | -3.13 ± 0.37 | -2.99 ± 0.47
UUACAGCAAUAUUACGGACU | -2.05 ± 0.17 | -1.9 ± 0.17
UUACAGCAAUAUUACGGCUA | -0.676 ± 0.091 | 0.443 ± 0.11
UUACAGCAAUAUUACGGGAU | -3.85 ± 0.21 | -2.69 ± 0.13
UUACAGCAAUAUUACGGGCU | -3.86 ± 0.24 | -2.32 ± 0.18
UUACAGCAAUAUUACGGUAU | -1.96 ± 0.097 | -0.871 ± 0.1
UUACAGCAAUAUUACGUAAC | -3.72 ± 0.18 | -3.25 ± 0.24
UUACAGCAAUAUUACGUCAU | -3.77 ± 0.2 | -1.18 ± 0.12
UUACAGCAAUAUUACGUCGG | -1.24 ± 0.08 | -0.125 ± 0.087
UUACAGCAAUAUUACGUGAC | -3.7 ± 0.21 | -1.81 ± 0.16
UUACAGCAAUAUUACGUUAA | -1.12 ± 0.11 | -0.847 ± 0.085
UUAGAGCAAUAUUACGAAAA | -1.66 ± 0.13 | -0.776 ± 0.15
UUAGAGCAAUAUUACGAAGA | -1.27 ± 0.13 | -0.451 ± 0.23
UUAGAGCAAUAUUACGAAGG | -1.72 ± 0.14 | -1.9 ± 0.23
UUAGAGCAAUAUUACGACAA | 0.166 ± 0.062 | 0.493 ± 0.09
UUAGAGCAAUAUUACGCAUA | -3.06 ± 0.27 | -0.817 ± 0.3
UUAGAGCAAUAUUACGGGUU | -4.25 ± 0.42 | -3.21 ± 0.35
UUAGAGCAAUAUUACGGUUA | -0.618 ± 0.15 | -1.17 ± 0.23
UUAGAGCAAUAUUACGUAGG | -2.7 ± 0.14 | -1.5 ± 0.15
UUAGAGCAAUAUUACGUCAA | -1.59 ± 0.16 | -1.15 ± 0.22
UUAGAGCAAUAUUACGUCAG | -1.02 ± 0.15 | -0.83 ± 0.17
UUAGAGCAAUAUUACGUCUA | -0.712 ± 0.071 | -0.109 ± 0.11
